Experimental data reported in publication PMC6901335.

Target: Recombinant MFG-E8 Protein (unlabelled, bound to NL4.3-GFP VLPs) (not stated (human or mouse recombinant protein bought)) (UniProt P21956)
Experiment: flow cytometry of viral-like particles; 1 × 10^4 NL4.3-GFP VLPs in 20 μl of 1% BSA/PBS or 1 × HBSS (1 mM Ca2+, 2 mM Mg2+, 1 mM Mn2+, 0.5% fatty acid free BSA) with MFG-E8 (5 μg/ml) and integrin αvβ3 (5 μg/ml) on ice for 30 min; bound proteins detected by αv and MFG-E8 antibodies

Chain of UniProt P21956 (P21956 23-463): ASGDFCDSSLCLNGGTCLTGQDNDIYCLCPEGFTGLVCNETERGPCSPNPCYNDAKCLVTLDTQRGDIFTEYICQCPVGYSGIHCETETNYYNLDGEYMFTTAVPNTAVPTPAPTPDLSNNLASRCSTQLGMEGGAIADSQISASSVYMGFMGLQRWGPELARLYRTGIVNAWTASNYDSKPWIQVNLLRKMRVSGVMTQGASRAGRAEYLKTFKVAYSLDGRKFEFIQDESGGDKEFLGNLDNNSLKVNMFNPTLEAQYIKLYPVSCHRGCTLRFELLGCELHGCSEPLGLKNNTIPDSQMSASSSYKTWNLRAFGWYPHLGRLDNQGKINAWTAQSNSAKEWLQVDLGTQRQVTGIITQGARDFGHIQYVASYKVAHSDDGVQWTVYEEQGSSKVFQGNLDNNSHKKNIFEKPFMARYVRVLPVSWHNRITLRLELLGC

## Recombinant Human Integrin alpha V beta 3 Protein (from UniProt P06756 31-1048; P05106 27-718) (receptor)
  percent of VLPs αvβ3/MFG-E8 positive: 80%
